Columns and labels:
[1] = Biotransformation of dodecanoic acid to δ-dodecalactone by CYP505An expressed in Pichia pastoris; format: cell-based; conditions: 10 mM fatty acid, 12 h, acidified
Method: (§1) A transformant of Pichia pastoris KM71 harbouring the gene encoding CYP505An (SEQ ID No 5) was grown and harvested as described above. The harvested cells were resuspended 1 g in 40 ml of MOPS (200 mM, 100 mM glucose, 100 mM glycerol, pH 8) buffer and 12.5 ml was transferred to each of two 500 ml Erlenmeyer flask. One flask was supplemented with 250 μl of a 500 mM dodecanoic acid stock solution (in DMSO) and the other flask with 250 μl of a 500 mM tetradecanoic acid stock solution (in DMSO) to give in each case a final concentration of 10 mM of the fatty acid. The flasks were incubated at 25° C. and 180 rpm for 12 h. Samples (800 μl) were withdrawn after 12 h and 136 μl of 5 M HCl added. These samples were stored for 5-6 h at room temperature to convert hydroxy fatty acids to the lactone. These were then extracted with ethyl acetate (2×800 μl).

[2] = Biotransformation of tetradecanoic acid to δ-dodecalactone by CYP505An expressed in Pichia pastoris; format: cell-based; conditions: 10 mM fatty acid, 12 h, acidified; via β-oxidation
Method: as §1

[3] = Biotransformation of dodecanoic acid using CFE of E. coli, Tris-HCl buffer; format: biochemical; conditions: C12 fatty acid; CYP505A1 only tested in CFEs of E. coli
Method: (§2) Expression of genes in E. coli was performed by using ZYP-5052 auto-induction medium (Table 1) with in the case of the CYP 1 mM 5-aminolevulinic acid and 0.05 mM FeCl3 added. The CYP505E3 culture was cultivated using baffled flasks and incubated at 20° C. and 180 rpm for 24 h, while the GDH, and HLADH expressing cultures were all cultivated at 25° C. and 200 rpm for 24 h. Cultures were harvested through centrifugation (6 000×g, 10 min) and 1 g (wet weight) resuspended in 2 ml, 5 ml or 10 ml Tris-HCl, Phosphate or MOPS buffer, as indicated, (pH 8, 200 mM) containing 100 mM of glucose and glycerol. CFEs were obtained by a single passage of the suspended cells through a One Shot Cell Disrupter (Constant Systems) at 207 MPa. The soluble fraction was separated from unbroken cells by centrifugation (20 000×g, 20 min).
(§3) The biotransformation reaction mixture (BRM) consisted of CYP and GDH CFE suspensions prepared from cells in Tris-HCl buffers (1 g wet weight in 2 ml buffer) mixed in a 1:1 ratio with 0.1 mM NADPH added. Dodecanoic acid, tetradecanoic acid, hexadecanoic acid, 1-tetradecanol and 1-hexadecanol (20 μl of a 255 mM stock solution in DMSO) were added to 40 ml amber glass vials containing 1 ml BRM to give final substrate concentrations of 5 mmol·LBRM^−1. These vials were placed on an orbital shaker at 20° C., 200 rpm, oscillation amplitude 26 mm. Vials were removed after 24 h for extraction. Biotransformations were stopped by adding 170 ul of 0.5M HCl, extracted with 2×500 μl EtOAc and subjected to GC-MS analysis. A sample of δ-dodecalactone in ethyl acetate (0.1 mM) was also methylated with TMSH and subjected to GC-MS analysis.

[4] = Biotransformation of tetradecanoic acid using CFE of E. coli, Tris-HCl buffer; format: biochemical
Method: as §2, §3

[5] = Biotransformation of hexadecanoic acid using CFE of E. coli, Tris-HCl buffer; format: biochemical
Method: as §2, §3

[6] = Biotransformation of 1-tetradecanol using CFE of E. coli, Tris-HCl buffer; format: biochemical; conditions: C14 alcohol; CYP505A1 only tested in CFEs of E. coli
Method: as §2
as §3, with “Vials were removed after 24 h for extraction. Biotransformations were stopped by adding 170 ul of 0.5M HCl, extracted with 2×500 μl EtOAc and subjected to GC-MS analysis. A sample of δ-dodecalactone in ethyl acetate (0.1 mM) was also methylated with TMSH and subjected to GC-MS analysis.” left out

[7] = C14 fatty acid, CYP505A1 only tested in CFEs of E. coli
[8] = C16 fatty acid, GC-MS peak height

Row | Molecule | δ-dodecalactone production from dodecanoic acid [1] | δ-dodecalactone production from tetradecanoic acid [2] | other hydroxylase activities (in brackets) C12FA [3] | ω-7 hydroxylase activity C12FA [3] | products identified from tetradecanoic acid (GC-MS, methylated samples) ([4]; 5 mmol/L substrate, CFE of E. coli, Tris-HCl, 24 h) | other hydroxylase activities (in brackets) C14FA [4, 7] | ω-7 hydroxylase activity C14FA [4, 7] | products identified from hexadecanoic acid (GC-MS, methylated samples) ([5]; 5 mmol/L substrate, Tris-HCl, 24 h) | other hydroxylase activities (in brackets) C16FA [5, 8] | ω-7 hydroxylase activity C16FA [5, 8] | ω-7 hydroxylase activity C14o [6]
1 | CYP505An: CYP505 cytochrome P450 monooxygenase from Aspergillus niger, SEQ ID No 5 (protein, Aspergillus niger) MKDAERIPGPKPLPVVGNLLDIDPEHGLQSIIAFADKYGPLFQITINGEKQIFATSQALVDELCDESRFHKAVVTGLEVLRLLAHDGLFTAYHGERGWGIAHRILVPAFGPLRIRNMLDDMSDVAQQLCLKWARQGGSTSINITEDFTRLTLDTIALCTMGFRLNSFYNNETMHPFVQSMLYVLKEADVQANLPGIANSIRVSAQRRMHKNIEAMRTMARGIIQERRKNKNPVDDILNTLLNGRDPVTGEGMSDDSIIDNVITFLIAGHETTSGLLSFTFYFLIQHPHILKKAQEEVDETVGLAQISAQHLAELPYIDAILKESLRLMPTAPGFAVTPKKTEVLGGKWMINAGQPVNVLLPACLRDQSVFGPDADEFHPERMLAENFSKLPPNSWKPFGNGERGCIGRAFAWQEAQLVVAMILQTFDLVPDDPSYQLRIKETLTIKPDGFRIRALLRRGQTATGLSRRSMLVARDGSSGESSNHLAEARGDHAPARGQPVSFFYGSNSGTCKALAHQLASNMMSRGYTTQKLAPLDNAVGNLPRDQPVIILTTTYDGQPTDDAKKFVAWLETGNVPSLQGISYAVFGCGHHDWTQTFYRIPILIDDLMHKAGATRLAPRGAANAAVSDLFSDLEAWEETSLLPALRENFLPSNSTDFDPLNPHQIQLSLSKPRRVDLHKGLIEAKVTAVRVLTSPDTPEKRHLEFCFQGDTSLRPGDHLNILPVNPPSTVSRVLAQFNLAPDYNITVNSFNTLGLPQATPVSASELFSSYVELCQPATRNNLKALIAATQSDPDKQELNRLYDSYEFIVRDKRVSVLDLLEQFPSISLPIAAFISMLPALRVRTYSLSMAPSFKPSHSSLTFSVINEPAWRGSGQHLGVASNYLASLTSGSIFYFSPRPAKESFHLPKDPSNTPIIMICAGSGLAPFLSFIQDRMVLKQQYKPLAKAFLFFGCRGRSLDDLYHEELSEFEAAGVVEIRRAYSKTPDFDIAKGCRYVQHRLVTEGQAILSLWSQNATIYVCGSTNMAKGVEAVLQNMLGPLPKERYVTEIF | δ-dodecalactone was produced | δ-dodecalactone was produced |  |  |  |  |  |  |  |  | 
2 | CYP505A1: known sub-terminal fatty acid hydroxylase of medium chain fatty acids from Fusarium oxysporum, Seq ID No 8 (protein, listed as Fusarium oxysporum) MAESVPIPEPPGYPLIGNLGEFTSNPLSDLNRLADTYGPIFRLRLGAKAPIFVSSNSLINEVCDEKRFKKTLKSVLSQVREGVHDGLFTAFEDEPNWGKAHRILVPAFGPLSIRGMFPEMHDIATQLCMKFARHGPRTPIDTSDNFTRLALDTLALCAMDFRFYSYYKEELHPFIEAMGDFLTESGNRNRRPPFAPNFLYRAANEKFYGDIALMKSVADEVVAARKASPSDRKDLLAAMLNGVDPQTGEKLSDENITNQLITFLIAGHETTSGTLSFAMYQLLKNPEAYSKVQKEVDEVVGRGPVLVEHLTKLPYISAVLRETLRLNSPITAFGLEAIDDTFLGGKYLVKKGEIVTALLSRGHVDPVVYGNDADKFIPERMLDDEFARLNKEYPNCWKPFGNGKRACIGRPFAWQESLLAMVVLFQNFNFTMTDPNYALEIKQTLTIKPDHFYINATLRHGMTPTELEHVLAGNGATSSSTHNIKAAANLDAKAGSGKPMAIFYGSNSGTCEALANRLASDAPSHGFSATTVGPLDQAKQNLPEDRPVVIVTASYEGQPPSNAAHFIKWMEDLDGNDMEKVSYAVFACGHHDWVETFHRIPKLVDSTLEKRGGTRLVPMGSADAATSDMFSDFEAWEDIVLWPGLKEKYKISDEESGGQKGLLVEVSTPRKTSLRQDVEEALVVAEKTLTKSGPAKKHIEIQLPSAMTYKAGDYLAILPLNPKSTVARVFRRFSLAWDSFLKIQSEGPTTLPTNVAISAFDVFSAYVELSQPATKRNILALAEATEDKDTIQELERLAGDAYQAEISPKRVSVLDLLEKFPAVALPISSYLAMLPPMRVRQYSISSSPFADPSKLTLTYSLLDAPSLSGQGRHVGVATNFLSHLTAGDKLHVSVRASSEAFHLPSDAEKTPIICVAAGTGLAPLRGFIQERAAMLAAGRTLAPALLFFGCRNPEIDDLYAEEFERWEKMGAVDVRRAYSRATDKSEGCKYVQDRVYHDRADVFKVWDQGAKVFICGSREIGKAVEDVCVRLAIEKAQQNGRDVTEEMARAWFERSRNERFATDVFD |  |  | (+++) (+++ 1 million < RA < 10 million) | − | only sub-terminally hydroxylated products | (++) (++ 0.1 million < RA < 1 million) | − | only sub-terminally hydroxylated products | (++) (++ 0.1 million < RA < 1 million) | − | −
